This is an account of results in article PMC12561426, “Dissecting the Interplay Between NRF2 and BACH1 at CsMBEs” (Antioxidants, 2025).

The target of data set [1] is T1, sMafG^YbbR (fluorescein-labelled sMafG^DBD-YbbR released by TEV from NRF2-TEV-sMafGχ^YbbR or … (human, UniProt O15525 1-162, fluorescein (CoA-fluorescein conjugate put on the YbbR tag by Sfp))).
T1 construct: small Maf protein G (sMafG), human, residues 1-162, the C-terminal half of the chimeric constructs; source: cut from the chimera by TEV in the assay; not shown: linker with 6xHis and TEV site, N-terminal, cleaved
The experiment in a line: native gel or EMSA; competition: fluorescein-labelled chimera (150 nM) assembled on Cy5-labelled dsDNA (3 nM) with TEV and 3C 4 h at 25 C, then the DBD competitor (150 nM-1.5 uM) added, overnight at 4 C; 10% non-denaturing gel, Cy5 and fluorescein scans. The following applies: both partners purified.

The target in data set [2] is T2, sMafG^DBD released by TEV from NRF2-sMafGχ or BACH1-sMafGχ (human, UniProt O15525 1-162).
T2 construct: small Maf protein G (sMafG), human, residues 1-162, the C-terminal half of the chimeric constructs; also called sMafG of NRF2/sMafG and BACH1/sMafG; sMafG^DBDχ; source: E. coli One Shot BL21 Star (DE3), purified as the chimera (HisTrap, heparin, SEC); cut from the chimera by 3C and TEV in the assay; not shown: linker with 6xHis and TEV site, N-terminal, cleaved
The experiment in a line: native gel or EMSA; chimeric constructs (0-300 nM) titrated on fluorescein-labelled CsMBE dsDNA (3 nM) with TEV and 3C proteases 4 h at 25 C; 150 mM NaCl, 50 mM HEPES pH 7.9, 10% glycerol, 1 mM TCEP, 1 mM DTT, 2 mM MgCl2; 6% non-denaturing gel; heterodimer on DNA. The conditions noted are these: both partners purified. In general terms: Mobility shift assays separate free from complexed probe on a gel.

Data set [3] concerns the molecule itself. Nature of the data set: SEC-MALS; Superdex 75 increase 10/300, 50 mM HEPES pH 7.9, 2 mM TCEP, 500 mM NaCl, 1-2 mg protein injected; without DNA. (Size exclusion chromatography separates by hydrodynamic size, large species first.)

B1: BACH1^DBD with the uncleaved 6xHis linker (released by TEV from BACH1-TEV-sMafGχ^YbbR) (domain or fragment)
chain: not shown
notes: The linker stays on this chain and gives the supershift; also called BACH1^DBD-6xHis-TEV; BACH1 of BACH1/sMafG^YbbR; source: cut from the chimera by TEV in the assay; not shown: linker with 6xHis (3C site removed, up to the TEV site), C-terminal, kept
Regarding B1, in data set [1], the binding result is “binds”.

B2: BACH1^DBD released by 3C from BACH1-sMafGχ (domain or fragment)
chain: not shown
notes: also called BACH1 of BACH1/sMafG; source: E. coli One Shot BL21 Star (DE3), purified as the chimera (HisTrap, heparin, SEC); cut from the chimera by 3C and TEV in the assay; not shown: linker with 3C site and 6xHis, C-terminal, cleaved
Turning to B2, the binding result in data set [2] is on record as “binds”.

B3: BACH1^DBD (domain or fragment)
chain: not shown
notes: The His-tag is called cleavable; TEV and 3C proteases were present in the EMSA samples; also called BACH1^DBD-3C-6xHis; source: E. coli One Shot BL21 Star (DE3), purified (HisTrap, heparin, SEC)
What is called stoichiometry N is a count of units in the complex or per binding partner. For the molecule B3, the “stoichiometry N” value in data set [3] came out at 2. Moreover, the binding result in data set [1] is reported as “binds”.

B4: NRF2^DBD with the uncleaved 6xHis linker (released by TEV from NRF2-TEV-sMafGχ^YbbR) (domain or fragment, human, UniProt Q16236 451-567, looked up)
chain: EAHLTRDELRAKALHIPFPVEKIINLPVVDFNEMMSKEQFNEAQLALIRDIRRRGKNKVAAQNCRKRKLENIVELEQDLDHLKDEKEKLLKEKGENDKSLHLLKKQLSTLYLEVFSM
notes: The linker stays on this chain and gives the supershift; also called NRF2^DBD-6xHis-TEV; NRF2 of NRF2/sMafG^YbbR; source: cut from the chimera by TEV in the assay; not shown: linker with 6xHis (3C site removed, up to the TEV site), C-terminal, kept
For the molecule B4, in data set [1], the binding result was “binds”.

B5: NRF2^DBD released by 3C from NRF2-sMafGχ (domain or fragment, human, UniProt Q16236 451-567, looked up)
chain: B4 chain
notes: also called NRF2 of NRF2/sMafG; source: E. coli One Shot BL21 Star (DE3), purified as the chimera (HisTrap, heparin, SEC); cut from the chimera by 3C and TEV in the assay; not shown: linker with 3C site and 6xHis, C-terminal, cleaved
Consider B5, for which the binding result in data set [2] is on record as “binds”.

B6: NRF2^DBD (domain or fragment, human, UniProt Q16236 451-567, looked up)
chain: B4 chain
notes: The His-tag is called cleavable; TEV and 3C proteases were present in the EMSA samples; also called NRF2^DBD-3C-6xHis; source: E. coli One Shot BL21 Star (DE3), purified (His-tag purification, heparin)
Consider B6, for which the binding result in data set [1] was “binds”.
